The text below walks through data of PMC4436832 (Molecular Biology of the Cell, 2015).

Data set [1] addresses Acanthamoeba castellani actin (filaments) (Acanthamoeba castellani).
The data set “SEC” deals with the molecule itself. In words: SEC.
Data set [2] concerns the target Taxol-stabilized microtubules (tubulin, Cytoskeleton T240) (UniProt P02550). In words: co-sedimentation.

B1: Wild-type CapuCT (C-terminal Capu construct, residues 467–1059) (domain or fragment)
chain: VSDNESAKEDGEKPHAVAPPPPPPPPPLHAFVAPPPPPPPPPPPPPPLANYGAPPPPPPPPPGSGSAPPPPPPAPIEGGGGIPPPPPPMSASPSKTTISPAPLPDPAEGNWFHRTNTMRKSAVNPPKPMRPLYWTRIVTSAPPAPRPPSVANSTDSTENSGSSPDEPPAANGADAPPTAPPATKEIWTEIEETPLDNIDEFTELFSRQAIAPVSKPKELKVKRAKSIKVLDPERSRNVGIIWRSLHVPSSEIEHAIYHIDTSVVSLEALQHMSNIQATEDELQRIKEAAGGDIPLDHPEQFLLDISLISMASERISCIVFQAEFEESVTLLFRKLETVSQLSQQLIESEDLKLVFSIILTLGNYMNGGNRQRGQADGFNLDILGKLKDVKSKESHTTLLHFIVRTYIAQRRKEGVHPLEIRLPIPEPADVERAAQMDFEEVQQQIFDLNKKFLGCKRTTAKVLAASRPEIMEPFKSKMEEFVEGADKSMAKLHQSLDECRDLFLETMRFYHFSPKACTLTLAQCTPDQFFEYWTNFTNDFKDIWKKEITSLLNELMKKSKQAQIESRRNVSTKVEKSGRISLKERMLMRRSKN
B1 showed a koff in data set [1] of 0.000245 s⁻¹. In addition, the “stoichiometry N” value in “SEC” was found to be 2. In data set [2], the Kd turned out to be 150 nM and the stoichiometry N (α/β dimers per binding site) was 1.42.

B2: CapuCT-I751T (domain or fragment)
chain: VSDNESAKEDGEKPHAVAPPPPPPPPPLHAFVAPPPPPPPPPPPPPPLANYGAPPPPPPPPPGSGSAPPPPPPAPIEGGGGIPPPPPPMSASPSKTTISPAPLPDPAEGNWFHRTNTMRKSAVNPPKPMRPLYWTRIVTSAPPAPRPPSVANSTDSTENSGSSPDEPPAANGADAPPTAPPATKEIWTEIEETPLDNIDEFTELFSRQAIAPVSKPKELKVKRAKSIKVLDPERSRNVGIIWRSLHVPSSEIEHAIYHIDTSVVSLEALQHMSNIQATEDELQRTKEAAGGDIPLDHPEQFLLDISLISMASERISCIVFQAEFEESVTLLFRKLETVSQLSQQLIESEDLKLVFSIILTLGNYMNGGNRQRGQADGFNLDILGKLKDVKSKESHTTLLHFIVRTYIAQRRKEGVHPLEIRLPIPEPADVERAAQMDFEEVQQQIFDLNKKFLGCKRTTAKVLAASRPEIMEPFKSKMEEFVEGADKSMAKLHQSLDECRDLFLETMRFYHFSPKACTLTLAQCTPDQFFEYWTNFTNDFKDIWKKEITSLLNELMKKSKQAQIESRRNVSTKVEKSGRISLKERMLMRRSKN
B2: the dissociation rate constant (koff) in data set [1] came out at 0.00277 s⁻¹.

B3: CapuCT-H977Y (domain or fragment)
chain: VSDNESAKEDGEKPHAVAPPPPPPPPPLHAFVAPPPPPPPPPPPPPPLANYGAPPPPPPPPPGSGSAPPPPPPAPIEGGGGIPPPPPPMSASPSKTTISPAPLPDPAEGNWFHRTNTMRKSAVNPPKPMRPLYWTRIVTSAPPAPRPPSVANSTDSTENSGSSPDEPPAANGADAPPTAPPATKEIWTEIEETPLDNIDEFTELFSRQAIAPVSKPKELKVKRAKSIKVLDPERSRNVGIIWRSLHVPSSEIEHAIYHIDTSVVSLEALQHMSNIQATEDELQRIKEAAGGDIPLDHPEQFLLDISLISMASERISCIVFQAEFEESVTLLFRKLETVSQLSQQLIESEDLKLVFSIILTLGNYMNGGNRQRGQADGFNLDILGKLKDVKSKESHTTLLHFIVRTYIAQRRKEGVHPLEIRLPIPEPADVERAAQMDFEEVQQQIFDLNKKFLGCKRTTAKVLAASRPEIMEPFKSKMEEFVEGADKSMAKLHQSLDECRDLFLETMRFYYFSPKACTLTLAQCTPDQFFEYWTNFTNDFKDIWKKEITSLLNELMKKSKQAQIESRRNVSTKVEKSGRISLKERMLMRRSKN
B3 gave an off-rate constant (koff) in data set [1] of 0.0013 s⁻¹. Also, the “stoichiometry N” value in “SEC” is 2. In data set [2], this molecule returned a Kd of 180 nM and a stoichiometry N (α/β dimers per binding site) of 0.95.

B4: CapuCT-D662N (domain or fragment)
chain: VSDNESAKEDGEKPHAVAPPPPPPPPPLHAFVAPPPPPPPPPPPPPPLANYGAPPPPPPPPPGSGSAPPPPPPAPIEGGGGIPPPPPPMSASPSKTTISPAPLPDPAEGNWFHRTNTMRKSAVNPPKPMRPLYWTRIVTSAPPAPRPPSVANSTDSTENSGSSPDEPPAANGADAPPTAPPATKEIWTEIEETPLNNIDEFTELFSRQAIAPVSKPKELKVKRAKSIKVLDPERSRNVGIIWRSLHVPSSEIEHAIYHIDTSVVSLEALQHMSNIQATEDELQRIKEAAGGDIPLDHPEQFLLDISLISMASERISCIVFQAEFEESVTLLFRKLETVSQLSQQLIESEDLKLVFSIILTLGNYMNGGNRQRGQADGFNLDILGKLKDVKSKESHTTLLHFIVRTYIAQRRKEGVHPLEIRLPIPEPADVERAAQMDFEEVQQQIFDLNKKFLGCKRTTAKVLAASRPEIMEPFKSKMEEFVEGADKSMAKLHQSLDECRDLFLETMRFYHFSPKACTLTLAQCTPDQFFEYWTNFTNDFKDIWKKEITSLLNELMKKSKQAQIESRRNVSTKVEKSGRISLKERMLMRRSKN
Molecule B4 showed a dissociation rate constant (koff) in data set [1] of 0.000297 s⁻¹. Further, the “stoichiometry N” value in the data set “SEC” was 2. In data set [2], this molecule registered a Kd of 250 nM and a stoichiometry N (α/β dimers per binding site) of 0.87.

B5: CapuCT-D854N (domain or fragment)
chain: VSDNESAKEDGEKPHAVAPPPPPPPPPLHAFVAPPPPPPPPPPPPPPLANYGAPPPPPPPPPGSGSAPPPPPPAPIEGGGGIPPPPPPMSASPSKTTISPAPLPDPAEGNWFHRTNTMRKSAVNPPKPMRPLYWTRIVTSAPPAPRPPSVANSTDSTENSGSSPDEPPAANGADAPPTAPPATKEIWTEIEETPLDNIDEFTELFSRQAIAPVSKPKELKVKRAKSIKVLDPERSRNVGIIWRSLHVPSSEIEHAIYHIDTSVVSLEALQHMSNIQATEDELQRIKEAAGGDIPLDHPEQFLLDISLISMASERISCIVFQAEFEESVTLLFRKLETVSQLSQQLIESEDLKLVFSIILTLGNYMNGGNRQRGQADGFNLDILGKLKNVKSKESHTTLLHFIVRTYIAQRRKEGVHPLEIRLPIPEPADVERAAQMDFEEVQQQIFDLNKKFLGCKRTTAKVLAASRPEIMEPFKSKMEEFVEGADKSMAKLHQSLDECRDLFLETMRFYHFSPKACTLTLAQCTPDQFFEYWTNFTNDFKDIWKKEITSLLNELMKKSKQAQIESRRNVSTKVEKSGRISLKERMLMRRSKN
Molecule B5 had a koff in data set [1] of 0.000592 s⁻¹. The “stoichiometry N” value in “SEC” worked out at 2. In data set [2], the Kd came out at 100 nM and the stoichiometry N (α/β dimers per binding site) worked out at 1.48.

B6: CapuCT-P597L (domain or fragment)
chain: VSDNESAKEDGEKPHAVAPPPPPPPPPLHAFVAPPPPPPPPPPPPPPLANYGAPPPPPPPPPGSGSAPPPPPPAPIEGGGGIPPPPPPMSASPSKTTISPAPLPDPAEGNWFHRTNTMRKSAVNPPKPMRLLYWTRIVTSAPPAPRPPSVANSTDSTENSGSSPDEPPAANGADAPPTAPPATKEIWTEIEETPLDNIDEFTELFSRQAIAPVSKPKELKVKRAKSIKVLDPERSRNVGIIWRSLHVPSSEIEHAIYHIDTSVVSLEALQHMSNIQATEDELQRIKEAAGGDIPLDHPEQFLLDISLISMASERISCIVFQAEFEESVTLLFRKLETVSQLSQQLIESEDLKLVFSIILTLGNYMNGGNRQRGQADGFNLDILGKLKDVKSKESHTTLLHFIVRTYIAQRRKEGVHPLEIRLPIPEPADVERAAQMDFEEVQQQIFDLNKKFLGCKRTTAKVLAASRPEIMEPFKSKMEEFVEGADKSMAKLHQSLDECRDLFLETMRFYHFSPKACTLTLAQCTPDQFFEYWTNFTNDFKDIWKKEITSLLNELMKKSKQAQIESRRNVSTKVEKSGRISLKERMLMRRSKN
As to B6, the koff in data set [1] turned out to be 0.0021 s⁻¹. Besides, in the data set “SEC”, the “stoichiometry N” value came to 2. In data set [2], this molecule displayed a Kd of 300 nM and a stoichiometry N (α/β dimers per binding site) of 0.88.

B7: CapuCT-K586M (domain or fragment)
chain: VSDNESAKEDGEKPHAVAPPPPPPPPPLHAFVAPPPPPPPPPPPPPPLANYGAPPPPPPPPPGSGSAPPPPPPAPIEGGGGIPPPPPPMSASPSKTTISPAPLPDPAEGNWFHRTNTMRMSAVNPPKPMRPLYWTRIVTSAPPAPRPPSVANSTDSTENSGSSPDEPPAANGADAPPTAPPATKEIWTEIEETPLDNIDEFTELFSRQAIAPVSKPKELKVKRAKSIKVLDPERSRNVGIIWRSLHVPSSEIEHAIYHIDTSVVSLEALQHMSNIQATEDELQRIKEAAGGDIPLDHPEQFLLDISLISMASERISCIVFQAEFEESVTLLFRKLETVSQLSQQLIESEDLKLVFSIILTLGNYMNGGNRQRGQADGFNLDILGKLKDVKSKESHTTLLHFIVRTYIAQRRKEGVHPLEIRLPIPEPADVERAAQMDFEEVQQQIFDLNKKFLGCKRTTAKVLAASRPEIMEPFKSKMEEFVEGADKSMAKLHQSLDECRDLFLETMRFYHFSPKACTLTLAQCTPDQFFEYWTNFTNDFKDIWKKEITSLLNELMKKSKQAQIESRRNVSTKVEKSGRISLKERMLMRRSKN
Take B7: the koff in data set [1] is 0.000852 s⁻¹. Besides, the “stoichiometry N” value in “SEC” was determined as 2. For the same molecule, in data set [2], the Kd came to 250 nM and the stoichiometry N (α/β dimers per binding site) is 0.88.
